From patent publication US8487076

What was measured:
[1] = target: HLA-A2 molecule, product of the HLA-A*0201 gene, on JY cells (human); experiment: flow cytometry; acid-stripped JY cells reassociated with b2m and peptide dilutions, stained with labeled mAb BB7.2; conditions: remark: other sources report otherwise
[2] = target: HLA-A24 molecule, product of the HLA-A*2402 gene, on C1R-A24 cells (human); experiment: flow cytometry; acid-stripped C1R-A24 cells reassociated with b2m and peptide dilutions, stained with labeled mAb 17A12; conditions: remark: other sources report otherwise

Binder | -log Kd (-log Kd (Kd in molar concentration)) [1] | -log Kd (-log Kd (Kd in molar concentration)) [2]
TLPPAWQPF [SEQ ID NO 23 (…), HLA-A2-binding 9 amino acid peptide of survivin] | 5.36 | –
TLPPAWQPF [SEQ ID NO 1 (…), HLA-A24-binding 9 amino acid peptide of survivin] | – | 8.26
FLKDHRISTF [SEQ ID NO 61 (…), HLA-A2-binding 10 amino acid peptide of survivin] | 5.53 | –
FLKDHRISTF [SEQ ID NO 44 (…), HLA-A24-binding 10 amino acid peptide of survivin] | – | 7.01
